Results reported in paper PMC8378520 (Nature structural & molecular biology, 2021).

T1: FANCI (human, UniProt Q9NVI1 1-1328)
T1 sequence: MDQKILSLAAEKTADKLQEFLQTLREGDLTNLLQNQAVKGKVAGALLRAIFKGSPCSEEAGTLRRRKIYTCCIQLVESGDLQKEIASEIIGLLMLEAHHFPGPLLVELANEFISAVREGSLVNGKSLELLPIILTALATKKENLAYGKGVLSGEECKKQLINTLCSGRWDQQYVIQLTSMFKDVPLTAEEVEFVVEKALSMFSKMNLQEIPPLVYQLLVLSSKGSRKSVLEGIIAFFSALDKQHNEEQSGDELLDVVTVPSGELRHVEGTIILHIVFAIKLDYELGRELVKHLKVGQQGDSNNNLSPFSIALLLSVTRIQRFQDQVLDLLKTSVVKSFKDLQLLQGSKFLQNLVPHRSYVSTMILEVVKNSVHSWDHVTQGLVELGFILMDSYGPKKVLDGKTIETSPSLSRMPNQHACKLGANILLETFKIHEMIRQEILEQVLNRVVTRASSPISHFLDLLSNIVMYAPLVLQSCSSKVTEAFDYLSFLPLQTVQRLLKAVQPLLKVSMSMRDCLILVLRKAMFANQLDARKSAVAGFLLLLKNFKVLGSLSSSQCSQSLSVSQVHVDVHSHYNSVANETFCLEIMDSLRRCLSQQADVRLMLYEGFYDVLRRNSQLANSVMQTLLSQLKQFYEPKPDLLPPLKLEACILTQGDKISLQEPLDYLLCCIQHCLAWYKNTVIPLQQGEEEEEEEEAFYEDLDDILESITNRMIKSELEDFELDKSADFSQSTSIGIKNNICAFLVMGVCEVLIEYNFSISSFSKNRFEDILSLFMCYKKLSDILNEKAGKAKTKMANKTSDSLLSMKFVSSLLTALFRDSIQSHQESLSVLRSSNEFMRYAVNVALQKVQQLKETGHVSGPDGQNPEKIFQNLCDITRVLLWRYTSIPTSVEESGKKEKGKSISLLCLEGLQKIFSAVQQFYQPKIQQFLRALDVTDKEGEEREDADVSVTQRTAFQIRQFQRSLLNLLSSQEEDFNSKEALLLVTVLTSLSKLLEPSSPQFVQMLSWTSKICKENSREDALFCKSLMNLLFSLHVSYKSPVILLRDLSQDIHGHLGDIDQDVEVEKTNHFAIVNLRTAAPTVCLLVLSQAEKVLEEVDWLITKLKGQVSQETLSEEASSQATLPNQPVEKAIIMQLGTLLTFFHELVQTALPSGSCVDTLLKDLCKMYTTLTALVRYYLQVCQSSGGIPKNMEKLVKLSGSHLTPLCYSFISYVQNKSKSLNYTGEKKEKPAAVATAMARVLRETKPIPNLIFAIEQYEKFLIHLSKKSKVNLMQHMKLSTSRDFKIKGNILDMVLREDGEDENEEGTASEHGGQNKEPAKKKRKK

B1: FANCB-FAAP100 heterodimer (complex, human)
chain 1: MTSKQAMSSNEQERLLCYNGEVLVFQLSKGNFADKEPTKTPILHVRRMVFDRGTKVFVQKSTGFFTIKEENSHLKIMCCNCVSDFRTGINLPYIVIEKNKKNNVFEYFLLILHSTNKFEMRLSFKLGYEMKDGLRVLNGPLILWRHVKAFFFISSQTGKVVSVSGNFSSIQWAGEIENLGMVLLGLKECCLSEEECTQEPSKSDYAIWNTKFCVYSLESQEVLSDIYIIPPAYSSVVTYVHICATEIIKNQLRISLIALTRKNQLISFQNGTPKNVCQLPFGDPCAVQLMDSGGGNLFFVVSFISNNACAVWKESFQVAAKWEKLSLVLIDDFIGSGTEQVLLLFKDSLNSDCLTSFKITDLGKINYSSEPSDCNEDDLFEDKQENRYLVVPPLETGLKVCFSSFRELRQHLLLKEKIISKSYKALINLVQGKDDNTSSAEEKECLVPLCGEEENSVHILDEKLSDNFQDSEQLVEKIWYRVIDDSLVVGVKTTSSLKLSLNDVTLSLLMDQAHDSRFRLLKCQNRVIKLSTNPFPAPYLMPCEIGLEAKRVTLTPDSKKEESFVCEHPSKKECVQIITAVTSLSPLLTFSKFCCTVLLQIMERESGNCPKDRYVVCGRVFLSLEDLSTGKYLLTFPKKKPIEHMEDLFALLAAFHKSCFQITSPGYALNSMKVWLLEHMKCEIIKEFPEVYFCERPGSFYGTLFTWKQRTPFEGILIIYSRNQTVMFQCLHNLIRILPINCFLKNLKSGSENFLIDNMAFTLEKELVTLSSLSSAIAKHESNFMQRCEVSKGKSSVVAAALSDRRENIHPYRKELQREKKKMLQTNLKVSGALYREITLKVAEVQLKSDFAAQKLSNL
chain 2: MAGAAPRVRYLAGFCCPLGGLAAGKPRVLCHEAEVFLSTGSELVYVYDQEGGLLTAAFRFPDQVWHLELLAPRRLLYALCARRGLYCLSLDHPGRSRSTSQDDRDSEDGDQPSPVIPVDPDACILPDAALCAFTLLDSVLVTLVQGPARWKMQLFEQPCPGEDPRPGGQIGEVELSSYTPPAGVPGKPAAPHFLPVLCSVSPSGSRVPHDLLGGSGGFTLEDALFGLLFGADATLLQSPVVLCGLPDGQLCCVILKALVTSRSAPGDPNALVKILHHLEEPVIFIGALKTEPQAAEAAENFLPDEDVHCDCLVAFGHHGRMLAIKASWDESGKLVPELREYCLPGPVLCAACGGGGRVYHSTPSDLCVVDLSRGSTPLGPEQPEEGPGGLPPMLCPASLNICSVVSLSASPRTHEGGTKLLALSAKGRLMTCSLDLDSEMPGPARMTTESAGQKIKELLSGIGNISERVSFLKKAVDQRNKALTSLNEAMNVSCALLSSGTGPRPISCTTSTTWSRLQTQDVLMATCVLENSSSFSLDQGWTLCIQVLTSSCALDLDSACSAITYTIPVDQLGPGARREVTLPLGPGENGGLDLPVTVSCTLFYSLREVVGGALAPSDSEDPFLDECPSDVLPEQEGVCLPLSRHTVDMLQCLRFPGLAPPHTRAPSPLGPTRDPVATFLETCREPGSQPAGPASLRAEYLPPSVASIKVSAELLRAALKDGHSGVPLCCATLQWLLAENAAVDVVRARALSSIQGVAPDGANVHLIVREVAMTDLCPAGPIQAVEIQVESSSLADICRAHHAVVGRMQTMVTEQATQGSSAPDLRVQYLRQIHANHETLLREVQTLRDRLCTEDEASSCATAQRLLQVYRQLRHPSLILL
B2: FANCL (enzyme, human, UniProt Q9NW38-1 1-375, looked up)
chain: MAVTEASLLRQCPLLLPQNRSKTVYEGFISAQGRDFHLRIVLPEDLQLKNARLLCSWQLRTILSGYHRIVQQRMQHSPDLMSFMMELKMLLEVALKNRQELYALPPPPQFYSSLIEEIGTLGWDKLVYADTCFSTIKLKAEDASGREHLITLKLKAKYPAESPDYFVDFPVPFCASWTPQSSLISIYSQFLAAIESLKAFWDVMDEIDEKTWVLEPEKPPRSATARRIALGNNVSINIEVDPRHPTMLPECFFLGADHVVKPLGIKLSRNIHLWDPENSVLQNLKDVLEIDFPARAILEKSDFTMDCGICYAYQLDGTIPDQVCDNSQCGQPFHQICLYEWLRGLLTSRQSFNIIFGECPYCSKPITLKMSGRKH
B3: UBE2T (enzyme, human)
chain: MQRASRLKRELHMLATEPPPGITCWQDKDQMDDLRAQILGGANTPYEKGVFKLEVIIPERYPFEPPQIRFLTPIYHPNIDSAGRICLDVLKLPPKGAWRPSLNIATVLTSIQLLMSEPNPDDPLMADISSEFKYNKPAFLKNARQWTEKHARQKQKADEEEMLDNLPEAGDSRVHNSTQKRKASQLVGIEKKFHPDV
B4: FANCA (natural protein, human, UniProt O15360-1 1-1455, looked up)
chain: MSDSWVPNSASGQDPGGRRRAWAELLAGRVKREKYNPERAQKLKESAVRLLRSHQDLNALLLEVEGPLCKKLSLSKVIDCDSSEAYANHSSSFIGSALQDQASRLGVPVGILSAGMVASSVGQICTAPAETSHPVLLTVEQRKKLSSLLEFAQYLLAHSMFSRLSFCQELWKIQSSLLLEAVWHLHVQGIVSLQELLESHPDMHAVGSWLFRNLCCLCEQMEASCQHADVARAMLSDFVQMFVLRGFQKNSDLRRTVEPEKMPQVTVDVLQRMLIFALDALAAGVQEESSTHKIVRCWFGVFSGHTLGSVISTDPLKRFFSHTLTQILTHSPVLKASDAVQMQREWSFARTHPLLTSLYRRLFVMLSAEELVGHLQEVLETQEVHWQRVLSFVSALVVCFPEAQQLLEDWVARLMAQAFESCQLDSMVTAFLVVRQAALEGPSAFLSYADWFKASFGSTRGYHGCSKKALVFLFTFLSELVPFESPRYLQVHILHPPLVPGKYRSLLTDYISLAKTRLADLKVSIENMGLYEDLSSAGDITEPHSQALQDVEKAIMVFEHTGNIPVTVMEASIFRRPYYVSHFLPALLTPRVLPKVPDSRVAFIESLKRADKIPPSLYSTYCQACSAAEEKPEDAALGVRAEPNSAEEPLGQLTAALGELRASMTDPSQRDVISAQVAVISERLRAVLGHNEDDSSVEISKIQLSINTPRLEPREHMAVDLLLTSFCQNLMAASSVAPPERQGPWAALFVRTMCGRVLPAVLTRLCQLLRHQGPSLSAPHVLGLAALAVHLGESRSALPEVDVGPPAPGAGLPVPALFDSLLTCRTRDSLFFCLKFCTAAISYSLCKFSSQSRDTLCSCLSPGLIKKFQFLMFRLFSEARQPLSEEDVASLSWRPLHLPSADWQRAALSLWTHRTFREVLKEEDVHLTYQDWLHLELEIQPEADALSDTERQDFHQWAIHEHFLPESSASGGCDGDLQAACTILVNALMDFHQSSRSYDHSENSDLVFGGRTGNEDIISRLQEMVADLELQQDLIVPLGHTPSQEHFLFEIFRRRLQALTSGWSVAASLQRQRELLMYKRILLRLPSSVLCGSSFQAEQPITARCEQFFHLVNSEMRNFCSHGGALTQDITAHFFRGLLNACLRSRDPSLMVDFILAKCQTKCPLILTSALVWWPSLEPVLLCRWRRHCQSPLPRELQKLQEGRQFASDFLSPEAASPAPNPDWLSAAALHFAIQQVREENIRKQLKKLDCEREELLVFLFFFSLMGLLSSHLTSNSTTDLPKAFHVCAAILECLEKRKISWLALFQLTESDLRLGRLLLRVAPDQHTRLLPFAFYSLLSYFHEDAAIREEAFLHVAVDMYLKLVQLFVAGDTSTVSPPAGRSLELKGQGNPVELITKARLFLLQLIPRCPKKSFSHVAELLADRGDCDPEVSAALQSRQQAAPDADLSQEPHLF

Tests used:
Assay in all cases: cryo-EM structure
[1] = molecular target: FA Core complex (human | human (endogenous in HEK-293F)) (UniProt O15360)
cryo-EM structure = molecular target: the molecule itself
FANCI = molecular target: T1, FANCI
FANCL = molecular target: B2

Row | binding result (FANCI) | Molecule | stoichiometry N (cryo-EM structure) | further results
1 |  | FANCI-FANCD2 (ID) complex (from UniProt Q9NVI1 1-1328; Q9BXW9 1-1451) |  | percent of Core particles with bound ID [1]: 63%
2 |  | B1 | 2 | 
3 | binds | B2 |  | 
4 | binds | B3 |  | binding result (FANCL): binds
5 |  | B4 | 2 | 
